# Assay results taken from IntAct's records for PubMed 20837657.
# B1: Segment polarity protein dishevelled (Drosophila melanogaster (Fruit fly)), P51140 (parent)
# chain: MDADRGGGQETKVIYHIDDETTPYLVKIPIPSAQVTLRDFKLVLNKQNNNYKYFFKSMDADFGVVKEEIADDSTILPCFNGRVVSWLVSADGTNQSDNCSELPTSECELGMGLTNRKLQQQQQQHQQQQQQQQQQHQQQQQQQQQQVQPVQLAQQQQQQVLHHQKMMGNPLLQPPPLTYQSASVLSSDLDSTSLFGTESELTLDRDMTDYSSVQRLQVRKKPQRRKKRAPSMSRTSSYSSITDSTMSLNIITVSINMEAVNFLGISIVGQSNRGGDGGIYVGSIMKGGAVALDGRIEPGDMILQVNDVNFENMTNDEAVRVLREVVQKPGPIKLVVAKCWDPNPKGYFTIPRTEPVRPIDPGAWVAHTQALTSHDSIIADIAEPIKERLDQNNLEEIVKAMTKPDSGLEIRDRMWLKITIPNAFIGADAVNWVLENVEDVQDRREARRIVSAMLRSNYIKHTVNKLTFSEQCYYVVNEERNPNLLGRGHLHPHQLPHGHGGHALSHADTESITSDIGPLPNPPIYMPYSATYNPSHGYQPIQYGIAERHISSGSSSSDVLTSKDISASQSDITSVIHQANQLTIAAHGSNKSSGSSNRGGGGGGGGGGNNTNDQDVSVFNYVL
# Variants of: B1
# Settings: with abl_drome Abl
row,Variant,effect of a mutation on the interaction
1,Y473F,decreasing interaction strength
